Results published in the DeepSol protein solubility set.

Assay: soluble on expression in E. coli; label from the status in PepcDB or PDB records

Sequence | soluble on expression in E. coli
MGSDKIHHHHHHVKTNLEHWVTLQEKGYFENHPFYQERQVNDDAARVEKATPLTKDMKIAIIGCGYGRESASFCRRVRKVYGIDVSWTILAKALERMLADNHVNFTPVLASQWKTILPDGGLDLVYSVVVFQHLTRDLVDDYIGGLKGKLRPGGRFYVQFCDSDTGEADADLRFYEPNVRWTEDDIRILARRHGLDLLSLDSERVTPTASWHWALMEKADDR | not soluble
MGSDKIHHHHHHVNYIKRAMENTFLRLAKEFPALLLTGPRQTGKTTMLQKLAAEEKIGRNYVTLDDLTERQMAKNDPKMFLQIHKPPVFIDEVQYAPELFSYIKIHIDRHHRPGDFWLTGSQVFKLMDGVQESLAGRVGLLHMSPMSQAESCGADTTPFILDLEQLTRRVRERNPLDTPALYERIFRGGMPALVSGQYTDHWALYSSYISTYLDRDVKEISGTINSLRFMDFITAAAALCGQMLNYKTIADAAGIDQLTAKGWLGILERLGIIFYLHPYANNMLKRMVTKPKLYFYDCGLVAYLTKWSDSATLMNGAMSGAILENFVVSEIIKSYQNYGREAFIYYYRDKDTKEIDILLEDSGKLYPMEIKKTATPQKQLTRVFNVIDKATLERGTGAVLCTTDRLSAFDSENLIIPIWGI | not soluble
MGSDKIHHHHHHVPLLFGTAGVPLSAKERSTEAGVKRVRELQLDAMEVEFVQGVRMGEEKAQKIAQIAVEEKVALSCHGPYWINFNSQEPEKVAASRERLLHSARISKILGVKSVVFHPAFYHQDDPQVVLVRTAGELMKVREILDAEGNDVILRPETTGKPSQLGTLQEVLTLAQAVPGVLPCIDISHLHARSNGRINTYDEFCQVLEAAAESLGDRWVKHVHFHVSGIDYGVKGEKKHLILKESDLRYPELMKAFHTFGVEGLVICESPNLEEDALLLQTTYRTMA | not soluble
MGSDKIHHHHHHVPQRTSFNGSTRPAWKNTTALIRNPKIASILATGGTGMVHAALQSGNPSMGVGAGNGAVYIDHTAFLDRAVEDILLSKRFDNSMVCATENSAVVEAPIYDKWLQMIQDKGAYLVPKKDYQKLADFVFNDKRGVNGPVAGMSARWICEHAGVTLSEGKDVLLFELDPKNIGEKLSSEKLSPLLSVYKAKDREDGIRIVKALLDYQGAGHNAAIQIGSQNDPFIDEYGKAVQASRVLVNQPDALGGIGDIYSDGLRPSLILGTGSWGKNSLSHNLSTSDLLNIKTIAKQRNRPQWIRLPEKIFTKKTSLPIFQMKMSRKSAGPLSSLTRAWSSSTSLTRSMNSWL | not soluble
MGSDKIHHHHHHVQHDQAPEVYSDLIQMVWALFTPSTVNFFSKGLCANAPFIMEMVDFEALKTVEEDVYLNAYNLTDHKMAIFGKDILDYEHFGATLAYPFIYPPAKVDGKLYLEGAAEDAFNFQGLLEHDEGIRTVVVFDAFGNEGYIQDPPNLWQAWGQNLILPLISLTRHDLAFFEHMLDDWNESHPARQDVELIKVTFPIPPEWLPTALDWSRSNLERMFELGYETGKKFVAEKGVRLGATLPPKPTPAKGRGGAAKKDDDAMFGGASIG | not soluble
MGSDKIHHHHHHVSSLSFNFAPDFRPLAARMRPRSIAEYIGQAHLLGEGQPLRKALEAGRAHSMMLWGPPGTGKTTLAELIAQYSNAHVERISAVTSGVKEIRAAIEQAKAIAESRGQRTLLFVDEVHRFNKSQQDAFLPFIEDGTVIFIGATTENPSFEINNALLSRARVYLIKRLSNNEIAHIVTQALADTERGLGLRQLEMPESVLIKLAQLCDGDARKALNLLELMSDMVSDNDTFTLEMLVQVAGHQVAGFDKNGDQFYDLISAVHKSIRGSAPDAALYWYCRILEGGGDPLYVARRLLAIASEDVGNADPAAMTIALNAWDCFHRVGPAEGERAIAQAIVYLASAPKSNAVYTAFKAARALARETGQESVPHHLRNAPTQLMKEIGMGEGYRYAHDEPNAYASGENYFPESLKTAQFYFPTERGFEKRIKDKLIQLTQLDQVSENKRYD | not soluble
MGSDKIHHHHHHVVVFCGMGTLGPSFPEVPWLRLGVMSTDPKPGAEHPHEVENLDNHECWRLLRSVSVGRLAVWVEDHPDIFPINYKVDHGTLVFRTADGTKLQAATGDTPVAVEADGVDADSGVAWSVVIKGQAAPVKNQQEVLDTVGLLLFPWQAGKKEHFVRITPDTVTGRRFKVTPPLTWWTPLDDATRSGFE | not soluble
MGSDKIHHHHHHVYNEFFHLRTKPFELLPDPDFLYPSKAHRKALAYFEYGLSERSGFILLTGEVGSGKTTLIREMLKRDLGRMVLSKVFNTRVDSTQLVAMINDDFGLETAGRDKMVMLRDLNDFLIDQYAAGRRAVLVIDEAQNLSQELLEEVRMLSNLETDSAKLLQIILVGQPELRDLLRSPALVQLRQRIQVHCHIAPLSQEELREYVLFRLERAGNRDAMEWGEGVFGLMHEATRGIPRLVNILCDYVLLDAYAAGRRSINSAELQDLLAELDFERQFWPVDETSAPAPAAEQQRRTAVRRDASSVARRMMLMLQDLGQRLDVLERGYEKSGPDMLADMAERLGALEKRVTVLAGRVESLHAERMQRGAAPQVQPYRQKPERRKGWFRRVFGGD | not soluble
MGSEKMIEICIDMEEGEPLGATPNDKLVITKIQAGTISEGKLRIGDQVKKVNGQNCKDCNDFFRALRFAAPCAKITVNRDEKKAEELEARVHIPEDRAKIIQRREGYVYELATLVWVQNGPKLGLGIKHFQNRVLVSRVDPGSLAEKCLVLGDHLCDVDGIPVSDKDVARDLLVKNIQEKGKVTFVVERPDSIDAKQWAKQALATNLMQPPSVQMNEDVKGIASQYRQALPGLKPPAKSAMSTGPNARRVSIIEQTQTHEIGHDHEGKALRKVK | soluble
MGSHHHHHHDITSLYKKAGSAAAVLEENLYFQGSFTMRLKELGEFGLIDLIKKTLESKVIGDDTAPVEYCSKKLLLTTDVLNEGVHFLRSYIPEAVGWKAISVNVSDVIANGGLPKWALISLNLPEDLEVSYVERFYIGVKRACEFYKCEVVGGNISKSEKIGISVFLVGETERFVGRDGARLGDSVFVSGTLGDSRAGLELLLMEKEEYEPFELALIQRHLRPTARIDYVKHIQKYANASMDISDGLVADANHLAQRSGVKIEILSEKLPLSNELKMYCEKYGKNPIEYALFGGEDYQLLFTHPKERWNPFLDMTEIGRVEEGEGVFVDGKKVEPKGWKHF | soluble
MGSHHHHHHSSGLVPRGSHMTIGIDKISFFVPPYYIDMTALAEARNVDPGKFHIGIGQDQMAVNPISQDIVTFAANAAEAILTKEDKEAIDMVIVGTESSIDESKAAAVVLHRLMGIQPFARSFEIKEACYGATAGLQLAKNHVALHPDKKVLVVAADIAKYGLNSGGEPTQGAGAVAMLVASEPRILALKEDNVMLTQDIYDFWRPTGHPYPMVDGPLSNETYIQSFAQVWDEHKKRTGLDFADYDALAFHIPYTKMGKKALLAKISDQTEAEQERILARYEESIIYSRRVGNLYTGSLYLGLISLLENATTLTAGNQIGLFSYGSGAVAEFFTGELVAGYQNHLQKETHLALLDNRTELSIAEYEAMFAETLDTDIDQTLEDELKYSISAINNTVRSYRN | soluble
MGSIILKAFDESTEINGDSLDLGEIQLTPYKGRLTLELLKKPAHTSQEEPGLEQENLYNYTISIYNKTKQAKIKNFNIKPPYIFLNDTNIETGDVIEVTFTHKKDYTLPATIELTLDRLMNASGQAVAKENGKGMASIQSGNQRCELMVYNSDKKFIESCSMNREGKIISNPLKEGVYTFVFISSNNYLWRLNTLEQFEEIGLKEGIHFVKKEVEIKNGEIKDLGLIVVPELNEKELFFTDPDVASYAVVSENNRIGKDIVLRAKYSFRKPIESQTVKLLFRVPDQTFYVKDTLTIDGELVDSVNVSGSFIEVTTTKTEGVVRFNIRPTEAVVCYSNAYVEFKAEGRTVREPLGVVNEVVPYLTIGAPNVTSLEKVYVTGQTLPNLEVKIYDEGSLVGVTKANSTGAWNFQVSLGKDKSYSVHNLSARIEYNDQVIESETLEVIYKKSVPEIEKVTMIHSNQSLILYKNGEIVPKGVYTYVPSQSYTFIVDFVGDSAEEIENLCIVSNRNGEERKLDAKYDPQSKSWIATGSFGYNHVPGSFTVEYNLKKKRLIKEDGELNLEVLEQISTFADQFLYELKKENVMVGLLDENEIGFMLKEDTGGIAIVTIVIGDQPIEREKYEKMGYLFKEIDGKLGAVLLIKDETENKIFTSKVRLASNKTEDSVKSEDDDESSQKETPLVTKDERISMAATIIGELGNIAGSGKVVEAIDFISGIGTAVNTIAFTPANAVTDMGYVQKKLQESENISSEDKERLRDDLFLASGVYNFTVNANFIASLMDGHTRNGTMHKIIDIVIDKYDQYSLGDKLWEDIFGKNEDDRESGKSTKSGKGSSIKLPLQEQKTLVDPSGYVYETVPDNRITDATVTVYYKDENGEMILWNAEEFGQKNPLLTDENGFYAWDVPEGMWQVKVEKEGYETAYSEILPVPPVQTNVNIPLVSYEPPKVGHIYAYPEYIEIAFSKYVKHATLDSESIQLKQGENKVNIKIVYEDEEGNYSKKIKLIPAEKTSFEGKYTLNISKSITSYAGVAMQKAEIRDIEIVAEPKSIEILDKVEIELRKTVAIEIRVLPEEAAKGKKIIVTSGMEEIVSAEDVLLDERGRGKLKLKGNLPGTVDIDLRLEGSAVEKKIQATVKFPEDNGEIIEPPVVLNGDLNRNGIVNDEDYILLKNYLLRGNKLVIDLNVADVNKDGKVNSTDCLFLKKYILGLITI | not soluble
MGSIPRVLISADRSSSGKTTISMGLMAALVSRGYKVQPFKVALDYIDPSYHTEITGRFCRNLDGYLMDEHGILDVYTHACETGGGADIAIIEGVRGLFEGFESLSDVGSTAQIAKILKCPVVFVINARSITRSAAALIGGYKNFDPDVEIAGVILNNIGGRRHAQKAKEAIEHYTGVPVLGIIPRDPSMQISMRHLGLMPALEGLEHHHHHH | not soluble
MGSNTLLCAKWLRGLRPRSRVNPLLNRALAAVGAGSPAKGRQAAPLAPIPRSSPVKALDQLTFDNRFARLGDAFSTQVLPEPIADPRLVVASESAMALLDLDPAQAELPVFAELFSGHKLWEEADPRAMVYSGHQFGSYNPRLGDGRGLLLAEVLNDAGEHWDLHLKGAGQTPYSRMGDGRAVLRSSIREFLASEALHALGIATSRALCVIGSSTPVWRETRESAAMLTRLAQSHVRFGHFEYFYYTKQPEQQRVLIDHVLEQHYPECREAEQPYLAMFRTIVERNAELIARWQAYGFCHGVMNTDNMSILGITFDFGPYAFLDDFDANFICNHSDDRGRYSYANQVPIAHWNLSALAQALTTVIEVEPLKEALGLFLPLYQAHYLDLMRRRLGLTTAEDDDMVLVERLLQCMQRGGVDYSLFFRKLGEQPVAEALKVARDDFIDLAGFDAWGADYLARCGREPGNAEGRRERMHAVNPLYVLRNYLAQKAIEAAEAGDYSEVRRLHQVLARPFEEQPGMQAYAERPPEWGKHLEISCSSLEHHHHHH | soluble
MGSQSETVCVTGASGFIGSWLVMRLLERGYTVRATVRDPTNVKKVKHLLDLPKAETHLTLWKADLADEGSFDEAIKGCTGVFHVATPMDFESKDPENEVIKPTIEGMLGIMKSCAAAKTVRRLVFTSSAGTVNIQEHQLPVYDESCWSDMEFCRAKKMTAWMYFVSKTLAEQAAWKYAKENNIDFITIIPTLVVGPFIMSSMPPSLITALSPITGNEAHYSIIRQGQFVHLDDLCNAHIYLFENPKAEGRYICSSHDCIILDLAKMLREKYPEYNIPTEFKGVDENLKSVCFSSKKLTDLGFEFKYSLEDMFTGAVDTCRAKGLLPPSHEKPVDGKT | soluble
MGSSHHHHHHGGTGENLYFQGGSGDLLHFISLVIDLRDYPGYATCIRATEYPGLALCEYNAVAGMRYTVPLGYAASAVYFYLYHRPRLSFADRSLTKLHHYFYPSAGYSTPLGIIGGVICGAAECVQGLTPAALEATAAREKAAAVMAAEQYSQRHRAVKERLKAEQSFASKALAWLQLCEDPVQAELARMGLGEDSIAWETLLVPQGYLWTQLHSVVHDPARYRGYEAPVATGAAVPTSADERLSQPSGGANTPCPSPSGVLSLSRAYFTKPQVDAVVSRIGTLRTSPEEDRWMRSAGRCGAYGVFGMLLTWNSGGALFRAQMGLGLGVVIAGLASATRLDEVFAHL | not soluble
